What all share (experiment): SPR
The target in assay [1] is D^d MHC class I monomer presenting […] (mouse | ).
The target of assay [2] is T1, K^d MHC class I monomer presenting VYLKTNVFL (mouse | ).
T1 chain 1: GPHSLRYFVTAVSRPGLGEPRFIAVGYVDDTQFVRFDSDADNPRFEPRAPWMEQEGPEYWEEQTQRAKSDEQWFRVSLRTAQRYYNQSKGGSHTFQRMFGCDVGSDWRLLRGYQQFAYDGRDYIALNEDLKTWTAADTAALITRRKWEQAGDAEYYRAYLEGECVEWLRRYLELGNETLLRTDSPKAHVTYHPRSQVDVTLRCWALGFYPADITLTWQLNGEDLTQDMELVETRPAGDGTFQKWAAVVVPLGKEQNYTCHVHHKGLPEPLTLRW
T1 chain 2: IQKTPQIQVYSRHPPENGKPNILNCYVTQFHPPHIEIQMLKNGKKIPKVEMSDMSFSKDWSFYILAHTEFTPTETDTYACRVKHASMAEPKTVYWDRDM
T1 chain 3: VYLKTNVFL

The target in assay [3] is T2, K^b MHC class I monomer presenting SIINFEKL (mouse | ).
T2 chain 1: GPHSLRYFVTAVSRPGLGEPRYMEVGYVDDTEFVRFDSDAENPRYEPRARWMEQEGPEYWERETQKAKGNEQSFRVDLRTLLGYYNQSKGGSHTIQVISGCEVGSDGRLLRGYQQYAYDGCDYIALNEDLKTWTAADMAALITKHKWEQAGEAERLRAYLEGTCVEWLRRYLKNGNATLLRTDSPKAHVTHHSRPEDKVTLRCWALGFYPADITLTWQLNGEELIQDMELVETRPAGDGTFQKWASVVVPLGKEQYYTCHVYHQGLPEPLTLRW
T2 chain 2: T1 chain 2
T2 chain 3: SIINFEKL

B1: 34-1-2S antibody (antibody, V domains shown)
VH: EVQLQQSGAEFVRPGASVKLSCTASGFNLKDDYMFWVKQRPEQGLEWIGWIAPDNGDTEYASKFQGKATITADTSSNTAYVQLSSLTSEDTAVYYCTTWGYYSYVNYWGQGTTLTVSS
VL: DIQMTQSPSSLSASLGERVSLTCRASQDIGSNLNWLQQEPDGTIKRLIYATYSLDSGVPKRFSGSRSGSDYSLTISSLESEDFVDYYCLQYASSPYTFGGGTKLEIK
Usually Kd stands for the concentration at which binding is half-saturated. A high value points to a looser complex. Consider B1, for which the Kd in assay [1] was found to be 30 nM; in assay [2] it was 9.1 nM; in assay [3], 2490 nM.

(Values after doi:10.1101/2024.01.24.577129 (2024).)
